Two molecules from US20250313627A1 (FUSE BIOTHERAPEUTICS, published 2025) can be followed below.

Experiment [1] concerns the target T1, recombinant His tagged human ROR1 (human, UniProt Q01973 30-403, limits assumed).
T1 construct: Analyte in the BLI assay; also called Human ROR1-His; recombinant ROR1
The experiment can be described thus: BLI (Octet), VHH-Fc loaded on the biosensor, His tagged ROR1 in solution. For orientation: BLI is a label-free optical method that tracks binding on a fibre tip over time.

Experiment [2] addresses T1, recombinant His tagged human ROR1. The experiment can be described thus: SPR (Biacore 8K), recombinant human ROR1 amine-coupled on a CM5 chip (4400 RU), analyte 200nM, 1:1 binding fit; column 'kd (1/s)' [table below it]. The procedure: (§1) Protein test article binding to recombinant human ROR1 (Acro Biosystems, RO1-H522y) was detected on a BIAcore 8K (Cytiva) biosensor system using an SPR assay. Briefly, a carboxymethylated CM5 sensor chip was activated with 1:1 mixture of 0.4 M N-ethyl-N-(3-dimethylaminopropyl) carbodiimide and 0.1 M′ N-hydroxysuccinimide. Recombinant human ROR1 in 10 mM NaOAc (pH5) was then immobilized on the sensor chip by amine-coupling according to the manufacturer's instructions to yield the stable RU of 4400. Unreacted sites were blocked with 1M ethanolamine/HCl (pH 8). Control flow cells (blank) were activated and blocked in the absence of ROR1. Flow cells were routinely equilibrated with running buffer (PBS, 0.005% surfactant P20). Test article proteins used for assessment of binding to recombinant human ROR1 binding were diluted in HBS-EP running buffer and injected into the sensor chip at different concentrations. […] Data from duplicate assays were modeled for binding equilibrium and dot plots for 200 nM of protein test article was calculated. Association constant (ka), dissociation constant (kd) and binding affinity (KD=kd/ka) were generated from integrated software in the BIAcore 8K system.
(§2) Shown are sensorgrams of surface plasmon resonance (SPR) data generated via Biacore analysis. A summary table of binding affinity (KD), on rate (k-a) and off rate (kd) is shown below FIG. 16B.
For orientation: In SPR one partner is held on a chip, and binding of the other changes the refractive index at the surface.

For experiment [3] the target is unchanged. The experiment can be described thus: BLI (Octet), VHH-Fc loaded on the biosensor, His tagged ROR1 in solution; column 'kdis(1/s)'.
Experiment [4] concerns the target T2, human ROR1 (Receptor Tyrosine Kinase-Like Orphan Receptor 1) on the cell surface (human, UniProt Q01973 30-937).
T2 construct: whole, on cells; engineered into B16-F10 (high density) and LS174T (low density) cells; also called B16-F10-ROR1-H; LS174T-ROR1-L
The experiment can be described thus: flow cytometry, LS174T cells expressing human ROR1 (low density). Here is the method:
(§3) As shown in the tables below, mouse B16-F10 melanoma (Tables 9A-9F) or LS174T human colorectal adenocarcinoma (Tables 9G-9H) cells genetically engineered to express human ROR1 at high and low densities, respectively, were stained for flow cytometric analysis with 100 nM of humanized variants of the ROR1 specific VHHs, 5A1 or 2A11 in either a VHH-Fc format or the Ac13 format shown in FIG. 1. Cells were analyzed on a flow cytometer after the primary test article was fluorescently tagged with a goat anti human IgG-Fc specific PE secondary antibody. The positive control used was PE conjugated anti-human ROR1 clone 2A2. Negative controls included a PE labeled mouse IgG Ab, the secondary antibody only, the combination of a Hen Egg Lysozyme (HEL) specific antibody plus goat anti human IgG-Fc specific PE and Fluorescence Minus One (FMO). Other controls included the non-humanized version of 5A1-Fc (FUSE179), 2A11-Fc (FUSE112) and 5A1-Ac13 (FUSE488). Humanized variants were generated using computational design (FUSE489, FUSE497-498, FUSE563, FUSE569-570, and BI-HU9-VHH11-33), a yeast display library in which mutations were inserted into the Vernier zone residues of human framework indicated in GenBank accession number M99660 (FUSE524-525, FUSE589, FUSE597-598, FUSE537, FUSE661-662, BI-HU9-HK and BI-HU9-HK-1), and a second yeast display library in which mutations were inserted into the Vernier zone residues of human framework indicated in GenBank accession number AWH66715 and amino acid position 103 within CDR3 (FUSE559, FUSE590-596, BI-HU9-VH9-1, FUSE654-655 and FUSE661-662. Affinity matured variants of FUSE559 were also generated using computational design (F22158101-21; Table 9H).

Experiment [5] has as its target T1, recombinant His tagged human ROR1. The experiment can be described thus: BLI (Octet), FUSE protein on the tip, His tagged ROR1 in solution; 5A1 parental VHH-Fc. The procedure:
(§4) As shown in FIGS. 5A-5D, the binding affinities (KD) of TCEs for ROR1 were assessed. We examined the magnitude by which several TCEs and mutants thereof bind to recombinant ROR1. Kinetic binding graphs were generated via Bio-Layer Interferometry (BLI) using an Octet system. For each TCE, the biosensor tips were coated with FUSE proteins at 15 μg/ml and probed with either recombinant His tagged ROR1 at concentrations ranging from 100 pM to 10 μM. […] The binding affinity (KD), on rate (k-on) and off rate (k-dis), are summarized for ROR1 in FIG. 5D.
(§5) We further examined the impact of mutating the cysteine residues located in CDR1 and CDR3 of 2A11 VHH and 5A1 VHH.

Experiment [6] deals with T2, human ROR1 (Receptor Tyrosine …). In words: flow cytometry, B16-F10 cells expressing human ROR1 (high density). Here is the method:
as §3

Experiment [7] has as its target T1, recombinant His tagged human ROR1. The experiment can be described thus: SPR (Biacore 8K), recombinant human ROR1 amine-coupled on a CM5 chip (4400 RU), analyte 200nM, 1:1 binding fit [table below it]. The procedure: as §1, §2
Experiment [8] addresses T2, human ROR1 (Receptor Tyrosine …). The experiment can be described thus: flow cytometry, LS174T cells expressing human ROR1 (low density). Here is the method:
as §3
This is another data set of the same source. A general note: Flow cytometry measures light scatter and fluorescence of single cells or particles in a stream.

Experiment [9] has the same target. The experiment can be described thus: flow cytometry, B16-F10 cells expressing human ROR1 (high density). The procedure:
as §3
The source holds these as a separate data set.

For experiment [10] the target is unchanged. In words: flow cytometry on B16-F10 cells engineered to express human ROR1, secondary antibody to the IgG1 Fc. The procedure:
As shown in FIG. 15 the apparent binding affinity (EC50-binding) of the ROR1 specific VHH-Fc incorporating either the non humanized VHH clone 5A1 (FUSE179; black circle), the humanized clone 5A1-FA9-HK1 (FUSE559; black square) or the humanized clone 5A1-HK1 (FUSE524; black triangle) was calculated. Shown is a non-linear x-y plot of binding to B16-F10 cell engineered to express human ROR1 relative to the concentration of test article used for staining. A Hen Egg Lysozyme (HEL)-specific antibody was used as the negative isotype control. Binding was measured via flow cytometry using a fluorescently labeled secondary antibody specific for the Fc domain of IgG1. A summary table of EC50s and maximum MFI is shown beneath under the graph.

In experiment [11] the target is T1, recombinant His tagged human ROR1. In words: SPR (Biacore 8K), recombinant human ROR1 amine-coupled on a CM5 chip (4400 RU), analyte 200nM, 1:1 binding fit; column '1:1 binding ka (1/Ms)' [table below it]. The procedure:
as §1, §2

The target of experiment [12] is T2, human ROR1 (Receptor Tyrosine …). In words: flow cytometry, B16-F10 cells expressing human ROR1 (high density). Here is the method: as §3
This is another data set of the same source.

Experiment [13] shares this target. Described as above. The procedure:
as §3
The source holds these as a separate data set.

The target is the same in experiment [14]. The description is as above. The source holds these as a separate data set.
For experiment [15], the target named is T1, recombinant His tagged human ROR1. In words: BLI (Octet), VHH-Fc loaded on the biosensor, His tagged ROR1 in solution. The source holds these as a separate data set.
Experiment [16] shares this target. The experiment can be described thus: BLI (Octet), FUSE protein on the tip, His tagged ROR1 in solution; 2A11 parental VHH-Fc. The procedure:
as §4, §5

The target is the same in experiment [17]. In words: BLI (Octet), VHH-Fc loaded on the biosensor, His tagged ROR1 in solution; column 'kdis(1/s)'. This is another data set of the same source.

T1 sequence (Q01973 30-403 limits assumed): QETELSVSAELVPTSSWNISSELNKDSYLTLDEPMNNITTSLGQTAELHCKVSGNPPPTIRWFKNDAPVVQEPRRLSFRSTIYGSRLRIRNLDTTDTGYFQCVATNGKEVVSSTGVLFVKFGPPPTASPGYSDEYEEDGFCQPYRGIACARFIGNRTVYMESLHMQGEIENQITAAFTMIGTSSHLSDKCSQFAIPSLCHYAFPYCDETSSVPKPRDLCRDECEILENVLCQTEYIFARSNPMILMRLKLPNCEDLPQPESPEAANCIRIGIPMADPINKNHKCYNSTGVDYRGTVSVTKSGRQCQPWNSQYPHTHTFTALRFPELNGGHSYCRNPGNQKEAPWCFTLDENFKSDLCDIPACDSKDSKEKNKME
T2 sequence (Q01973 30-937): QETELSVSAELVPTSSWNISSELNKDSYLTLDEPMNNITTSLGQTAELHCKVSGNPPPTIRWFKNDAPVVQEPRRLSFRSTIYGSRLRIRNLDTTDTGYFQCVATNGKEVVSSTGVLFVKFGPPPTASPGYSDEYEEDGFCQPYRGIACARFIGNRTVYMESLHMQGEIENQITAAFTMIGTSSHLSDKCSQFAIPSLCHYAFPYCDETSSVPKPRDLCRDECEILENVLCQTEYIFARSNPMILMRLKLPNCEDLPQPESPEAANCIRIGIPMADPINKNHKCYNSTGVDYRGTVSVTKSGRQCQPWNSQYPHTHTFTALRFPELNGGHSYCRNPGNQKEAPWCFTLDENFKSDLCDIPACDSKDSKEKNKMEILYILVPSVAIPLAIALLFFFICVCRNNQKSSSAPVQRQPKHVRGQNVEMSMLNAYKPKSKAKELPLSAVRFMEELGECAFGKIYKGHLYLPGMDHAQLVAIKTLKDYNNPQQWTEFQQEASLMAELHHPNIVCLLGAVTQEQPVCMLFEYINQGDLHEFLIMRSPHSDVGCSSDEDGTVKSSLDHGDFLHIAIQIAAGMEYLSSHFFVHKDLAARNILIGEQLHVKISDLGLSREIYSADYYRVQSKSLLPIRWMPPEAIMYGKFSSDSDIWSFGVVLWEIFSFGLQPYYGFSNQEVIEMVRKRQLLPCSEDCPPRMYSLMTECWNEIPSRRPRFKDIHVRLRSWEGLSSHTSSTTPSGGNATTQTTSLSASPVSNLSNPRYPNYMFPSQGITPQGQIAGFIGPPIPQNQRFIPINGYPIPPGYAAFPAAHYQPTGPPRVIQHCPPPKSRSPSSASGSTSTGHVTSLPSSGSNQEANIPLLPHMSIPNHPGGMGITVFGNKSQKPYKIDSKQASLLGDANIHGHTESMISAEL

B1: FUSE-179 (5A1 VHH-human-Fc fusion protein) (Fc fusion)
chain: QVQLQESGGGSVQAGGSLKLSCTASGYTNRLKCMGWFRQAPGKEREEIATISTGTGNTYYADSVKGRFTFSQDKVKNTVYLQMNTLKPDDTGMYYCAADVRPDGTTCHYNSGGQGTQVTVSS
notes: VHH-human-Fc fusion; non-humanized 5A1; not shown: human Fc
One may read the Kd as the concentration at which binding is half-saturated. As usually defined, the kon is a measure of how fast the partners come together. As usually defined, the koff is a measure of how fast the partners let go of each other. As usually defined, the EC50 is the midpoint of the concentration-response curve. Turning to B1, the Kd was 36 nM in experiment [1], around 4 nM in experiment [5] and 7.38 nM in experiment [7]. The kon was 48200 M⁻¹ s⁻¹ in experiment [1] and 144000 M⁻¹ s⁻¹ in experiment [11]. Also, the koff in experiment [2] stood at 0.00106 s⁻¹; in experiment [3] it was 0.00174 s⁻¹. Also, the MFI in experiment [4] worked out at 836; in experiment [6], 8480; in experiment [8], 3060; in [9] it was 3730; in experiment [12] it was 4480; in [13], 93800. The MFI in [14] stood at 4220. The molecule also had an EC50 in experiment [10] of 2.04 nM. For the same molecule, the “Max MFI” value in experiment [10] stood at 4900 MFI.

B2: FUSE-112 (2A11 VHH-human-Fc fusion protein) (Fc fusion)
chain: QVQLQESGGGSVPAGGSLRLSCAASGSTYSANCMGWFRQAPGKEREEVASMSIRSGRTYYSDSVKGRFTISQDGSKNTLYLQLNSLKAEDTALYYCAAAYGGSRCVYNYRGQGTQVTVSS
notes: VHH-human-Fc fusion; non-humanized 2A11; also called 2A11-Fc; not shown: human Fc
On to B2, for which the dissociation constant (Kd) in experiment [15] is 42.4 nM; in experiment [16], around 4 nM. Further, in [15], the kon was found to be 43100 M⁻¹ s⁻¹. Further, the MFI is 4340 in experiment [4], 11900 in experiment [6], 7840 in [12] and 208000 in [13]. Moreover, in [17], the koff stood at 0.00183 s⁻¹.
